Experimental data published in patent US20220259289A1 (Janssen / Centocor, published 2022).

B1: ISOP120HR5P1D9 (designed binder, not shown: small tags and cut ends)
chain: LPAPKNLVVSRVTEDSARLSWTAPDAAFDSFDIYYRELDFQGEAIVLTVPGSERSYDLTGLKPGTEYLVIIYGVKGGSYSYTLSAIFTT
notes: FN3 domain (Centyrin); tested as E. coli lysate
B2: ISOP120HR5P1H8 (designed binder, not shown: small tags and cut ends)
chain: LPAPKNLVVSRVTEDSARLSWTAPDAAFDSFDIYYYELRLGGEAIVLTVPGSERSYDLTGLKPGTEYLVTIYGVKGGYYSGPLSAIFTT
notes: as for B1
B3: ISOP120HR5P1G6 (designed binder, not shown: small tags and cut ends)
chain: LPAPKNLVVSRVTEDSARLSWTAPDAAFDSFEIYYFELRLGGEAIVLTVPGSERSYDLTGLKPGTEYLVTIYGVKGGLDSQPLSAIFTT
notes: as for B1
B4: ISOP120HR5P1H4 (designed binder, not shown: small tags and cut ends)
chain: LPAPKNLVVSRVTEDSARLSWTAPDAAFDSFDILYLEPYQEGEAIVLTVPGSERSYDLTGLKPGTEYLVTIYGVKGGYYSLPLSAIFTT
notes: as for B1
B5: ISOP120HR5P1G4 (designed binder, not shown: small tags and cut ends)
chain: LPAPKNLVVSRVTEDSARLSWTAPDAAFDSFEIYYREYWYSGEAIVLTVPGSERSYDLTGLKPGTEYLVTIYGVKGGWYSDPLSAIFTT
notes: as for B1
B6: ISOP120HR5P1F9 (designed binder, not shown: small tags and cut ends)
chain: LPAPKNLVVSRVTEDSARLSWTAPDAAFDSFYIYYREHWTIGEAIVLTVPGSERSYDLTGLKPGTEYLVTIYGVKGGAYSNPLSAIFTT
notes: as for B1
B7: ISOP120ER5P1E10 (designed binder, not shown: small tags and cut ends)
chain: LPAPKNLVVSRVTEDSARLSWTAPDAAFDSFEIYYMEDFHSGEAIVLTVPGSERSYDLTGLKPGTEYWVTIYGVEGGTGSLPLSAIFTT
notes: as for B1
B8: ISOP120AR5P1B5 (designed binder, not shown: small tags and cut ends)
chain: LPAPKNLVVSRVTEDYARLSWKYGEHIIWFDSFLIQYQESEKVGEAIVLTVPGSERSYDLTGLKPGTEYTVSIYGVKGQHDHDSNPLSAIFTT
notes: as for B1
B9: ISOP120AR5P1G8 (designed binder, not shown: small tags and cut ends)
chain: LPAPKNLVVSRVTEDSARLSWHATFGDPFDSFLIQYQESEKVGEAIVLTVPGSERSYDLTGLKPGTEYTVSIYGVGRHYTVYDSNPLSAIFTT
notes: as for B1
B10: ISOP120AR5P1D9 (designed binder, not shown: small tags and cut ends)
chain: LPAPKNLVVSRVTEDSARLSWNTDWVHTFDSFLIQYQESEKVGEAIVLTVPGSERSYDLTGLKPGTEYTVSIYGVGRHYTVYDSNPLSAIFTT
notes: as for B1
B11: ISOP120HR5P1E7 (designed binder, not shown: small tags and cut ends)
chain: LPAPKNLVVSRVTEDSARLSWTAPDAAFDSFQIYYLEQLGYGEAIVLTVPGSERSYDLTGLKPGTEYLVTIYGVKVCEQSYPLSAIFTT
notes: as for B1
B12: ISOP120ER5P1B12 (designed binder, not shown: small tags and cut ends)
chain: LPAPKNLVVSRVTEDSARLSWTAPDAAFDSFAIYYIEWTAYGEAIVLTVPGSERSYDLTGLKPGTEYVVRISGVKCGIVSFPLSAIFTT
notes: as for B1
B13: ISOP120AR5P1B12 (designed binder, not shown: small tags and cut ends)
chain: LPAPKNLVVSRVTEDSARLSWDGDKWANFKFDSFLIQYQESEKVGEAIVLTVPGSERSYDLTGLKPGTEYTVSIYGVGLHYIVYDSNPLSAIFTT
notes: FN3 domain (Centyrin)
B14: ISOP120FR5P1E9 (designed binder, not shown: small tags and cut ends)
chain: LPAPKNLVVSRVTEDSARLSWTAPDAAFDSFIIYYPEYISNGEAIVLTVPGSERSYDLTGLKPGTEYHVTIGVKGGHSWPLSAIFTT
notes: as for B1
B15: ISOP120FR5P1A6 (designed binder, not shown: small tags and cut ends)
chain: LPAPKNLVVSRVTEDSARLSWTAPDAAFDSFIIRYLEDISYGEAIVLTVPGSERSYDLTGLKPGTEYHVGIEGVKGGNVSFPLSAIFTT
notes: as for B1
B16: ISOP120ER5P1F4 (designed binder, not shown: small tags and cut ends)
chain: LPAPKNLVVSRVTEDSARLSWTAPDAAFDSFVIRYIEDTVMGEAIVLTVPGSERSYDLTGLKPGTEYHVSIEGVKGGPSSLPLSAIFTT
notes: as for B1
B17: ISOP120ER5P1H4 (designed binder, not shown: small tags and cut ends)
chain: LPAPKNLVVSRVTEDSARLSWTAPDAAFDSFNIMYLEDVQCGEAIVLTVPGSERSYDLTGLKPGTEYHVGINGVKGGLRSFPLSAIFTT
notes: as for B1
B18: ISOP120FR5P1H6 (designed binder, not shown: small tags and cut ends)
chain: LPAPKNLVVSRVTEDSARLSWTAPDAAFDSFGIPYLEDIEVGEAIVLTVPGSERSYDLAGLKPGTEYHVGIYGVKGGEQSFPLSAIFTT
notes: as for B1
B19: ISOP120ER5P1E5 (designed binder, not shown: small tags and cut ends)
chain: LPAPKNLVVSRVTEDSARLSWTAPDAAFDSFRISYLEDVYYGEAIVLTVPGSERSYDLTGLKPGTEYHVGIHGVKGGIDSFPLSAIFTT
notes: as for B1
B20: ISOP120HR5P1B5 (designed binder, not shown: small tags and cut ends)
chain: LPAPKNLVVSRVTEDSARLSWTAPDAAFDSFIIRYIEEGYYGEAIVLTVPGSERSYDLTGLKPGTEYHVGIEGVKGGYYSYPLSAIFTT
notes: as for B1
B21: ISOP120ER5P1A7 (designed binder, not shown: small tags and cut ends)
chain: LPAPKNLVVSRVTEDSARLSWTAPDAAFDSFNIGYYERIIPGEAIVLTVPGSERSYDLTGLKPGTEYSVLICGVKGGKGSIPLSAIFTT
notes: as for B1
B22: ISOP120FR5P1E10 (designed binder, not shown: small tags and cut ends)
chain: LPAPKNLVVSRVTEDSARLSWTAPDAAFDSFLIHYTEQPSKGEAIVLTVPGSERSYDLTGLKPGTEYQVPIGVKGGTQSCPLSAIFTT
notes: as for B1
B23: ISOP120BR5P1C1 (designed binder, not shown: small tags and cut ends)
chain: LPAPKNLVVSRVTEDSARLSWVREDAYAFDSFLIQYQESEKVGEAIVLTVPGSERSYDLTGLKPGTEYTVSIYGVSSLHWVVHDSNPLSAIFTT
notes: as for B1

What was measured:
Experiment in all cases: ELISA, bacterial lysate on plate-bound antigen, luminescence
[1] = target: unrelated Fc-fused recombinant protein (negative control)
[2] = target: T1, recombinant biotinylated human CD137 protein (Fc-fusion protein, R&D Systems 838-4B) (human, UniProt Q07011 24-186, biotinylated (site not stated))
T1 construct: Bought Fc fusion; The ELISA used the same antigen as the panning; also called CD137-Fc; biotinylated CD137; not shown: Fc part of the bought fusion protein
Protocol: (§1) Streptavidin-coated Maxisorp plates (Nunc catalog 436110) were blocked for 1 h in Starting Block T20 (Pierce) and then coated with biotinylated CD137 (using same antigen as in panning) or negative controls (an unrelated Fc-fused recombinant protein and human serum albumin) for 1 h. Plates were rinsed with TBST and diluted lysate was applied to plates for 1 h. Following additional rinses, wells were treated with HRP-conjugated anti-Centyrin antibody (PAB25) for 1 h and then assayed with POD (Roche catalog 11582950001).

[3] = target: T2, human serum albumin (human, UniProt P02768 25-609)
T2 construct: Negative control antigen of the screening ELISA; also called HSA
Protocol: as §1

T2 sequence (P02768 25-609 limits assumed): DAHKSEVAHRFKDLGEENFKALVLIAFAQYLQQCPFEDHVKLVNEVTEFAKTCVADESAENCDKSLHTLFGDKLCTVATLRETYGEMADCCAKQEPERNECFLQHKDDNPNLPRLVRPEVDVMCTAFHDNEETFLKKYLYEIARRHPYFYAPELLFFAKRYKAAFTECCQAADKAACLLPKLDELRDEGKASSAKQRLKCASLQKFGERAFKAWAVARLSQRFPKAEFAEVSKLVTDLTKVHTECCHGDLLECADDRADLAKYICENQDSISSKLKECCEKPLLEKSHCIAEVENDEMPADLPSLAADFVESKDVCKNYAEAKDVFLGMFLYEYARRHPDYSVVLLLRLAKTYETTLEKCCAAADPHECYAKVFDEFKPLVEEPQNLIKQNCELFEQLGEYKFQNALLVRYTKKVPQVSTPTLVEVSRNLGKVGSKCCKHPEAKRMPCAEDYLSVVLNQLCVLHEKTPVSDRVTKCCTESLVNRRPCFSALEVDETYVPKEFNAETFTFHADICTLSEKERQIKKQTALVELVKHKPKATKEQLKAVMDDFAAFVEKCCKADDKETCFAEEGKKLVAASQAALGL

| Binder | ELISA Fc Control (RLU) [1] [RLU] | ELISA CD137-Fc (RLU) [2] [RLU] | ELISA HSA (RLU) [3] [RLU] |
| --- | --- | --- | --- |
| B1 | 480 | 405000 | 400 |
| B2 | 320 | 2.22e+06 | 400 |
| B3 | 400 | 2.04e+06 | 320 |
| B4 | 480 | 630000 | 320 |
| B5 | 320 | 347000 | 480 |
| B6 | 400 | 1.18e+06 | 400 |
| B7 | 720 | 810000 | 400 |
| B8 | 400 | 501000 | 320 |
| B9 | 320 | 541000 | 320 |
| B10 | 320 | 636000 | 320 |
| B11 | 480 | 363000 | 480 |
| B12 | 720 | 1.44e+06 | 800 |
| B13 | 400 | 864000 | 480 |
| B14 | 320 | 1.18e+06 | 400 |
| B15 | 400 | 1.4e+06 | 320 |
| B16 | 320 | 537000 | 400 |
| B17 | 480 | 1.07e+06 | 560 |
| B18 | 320 | 357000 | 320 |
| B19 | 240 | 413000 | 320 |
| B20 | 320 | 520000 | 240 |
| B21 | 400 | 1.11e+06 | 400 |
| B22 | 240 | 953000 | 320 |
| B23 | 480 | 438000 | 480 |
